Values of other authors, collected in paper PMC4125468.
Like-named read-outs stand apart in the source and are kept apart here.

Experiments:
MD-2 (Homo sapiens) [1] = target: MD-2 (Homo sapiens) (UniProt Q9Y6Y9)
sCD14 (Homo sapiens) = sCD14 (Homo sapiens) (UniProt P08571)
MD-2 (Homo sapiens) [2] = target: MD-2 (Homo sapiens) (UniProt Q9Y6Y9); assay: radioligand binding

UniProt P08571, sequence (P08571 20-345): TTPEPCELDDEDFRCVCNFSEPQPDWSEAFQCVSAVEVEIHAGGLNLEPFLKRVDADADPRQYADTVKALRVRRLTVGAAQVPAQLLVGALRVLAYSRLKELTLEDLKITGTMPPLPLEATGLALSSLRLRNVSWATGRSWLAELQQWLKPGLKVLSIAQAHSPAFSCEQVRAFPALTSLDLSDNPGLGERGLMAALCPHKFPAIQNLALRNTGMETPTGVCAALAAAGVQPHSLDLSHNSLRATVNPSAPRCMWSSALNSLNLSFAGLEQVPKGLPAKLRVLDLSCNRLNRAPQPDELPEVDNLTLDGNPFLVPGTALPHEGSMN

For TLR4ECD ECD (from UniProt O00206), the Kd (MD-2 (Homo sapiens) [1]) is listed as 0.2 nM.
In the case of MD-2/TLR4ECD ECD (from UniProt Q9Y6Y9), the Kd (sCD14 (Homo sapiens)) is given as 0.2 nM.
For TLR4 ECD (from UniProt O00206), the Kd (MD-2 (Homo sapiens) [2]) is listed as 0.5 nM.
